Results from US20220098307A1 (WUHAN YZY BIOPHARMA, published 2022).
Positions count from the first letter of the chain named. In names and notes the source's numbering stands. Like-named read-outs stand apart in the source and are kept apart here.

Tests used:
Monkey CD3 [1] = target: T1, Monkey CD3 (monkey); experiment: flow cytometry, monkey T cells
T1 construct: whole, on cells; also called CD3 of monkey CD3 positive T cells

Human CD38 = Human CD38 (human, UniProt P28907 43-300); experiment: flow cytometry, MM.1S or RPMI 8226 cells
From the text: (§1) 1) Cell preparation: T cells isolated from CD3-positive human whole blood were used for a CD3 end affinity detection of multifunctional antibody molecule; positive tumor cells of corresponding antigen were used for detecting affinity of tumor antigen; for example, CD38-positive MM. 1S cells (purchased from the Cell Resource Center of Shanghai Institutes for Biological Sciences, Chinese Academy of Sciences) or RPMI 8226 cells (purchased from the Cell Resource Center of Shanghai Institutes for Biological Sciences, Chinese Academy of Sciences) were used for CD38 antigen detection, and PD-L1 positive H358 cells (purchased from the Cell Resource Center of Shanghai Institutes for Biological Sciences, Chinese Academy of Sciences) were used for PD-L1 antigen detection, and so on. The cells were resuspended with 1% FBS-PBS, adjusted to a density of 4×10⁶/ml, and 50 μl of cells were taken from each well, and then plated at 2×10⁵ per well. Cell plating was operated on ice
(§2) 2) Addition of the antibody: according to the experimental design, the antibody was diluted gradually, and dilution of antibody was operated on ice. For example, the initial concentration of antibody for dilution was 3000 nM, and the antibody was diluted by 3 times with 11 concentration gradients. The diluted antibody was added to a cell well at 50 μl per well, mixed well, and shaked and incubated at 4° C. 1100 rpm/min for 2 h; after washing, the cells were resuspend in 1% FBS-PBS, and a diluted secondary antibody PE anti-human IgG FC (Biolegend, 409304) was added with a final concentration of 8 ug/ml and a volume of 50 μl/well. At the same time, a well only added with cells and secondary antibody was set as a control, the components were mixed well, and incubated under shaking at 1100 rpm/min at 4° C. for 1 h;
(§3) 5) Data analysis: the data was analyzed by a flow analysis software FlowJo 7.6 thereby obtaining an average fluorescence intensity of the specific antibody concentration, plotted by a Graphpad Prism 5 with the antibody concentration (nM) as an abscissa and the average fluorescence intensity as an ordinate; the EC50 value was calculated by the method of One site—Specific binding, and the EC50 value indicated the cell affinity of the antibody to the corresponding target antigen.

Human CD3ε = target: T2, Human CD3ε (human, UniProt P07766 23-126); experiment: flow cytometry, human T cells
T2 construct: CD3 on T cells isolated from human whole blood
In short: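 Mean fluorescence intensity by flow cytometry was plotted against antibody concentration; EC50 came from a one site–specific binding fit. Cells (2×10⁵/well) were incubated with 11-point, 3-fold antibody dilutions starting at 3000 nM for 2 h at 4° C, then with PE anti-human IgG Fc for 1 h.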

Monkey CD3 [2] = target: T1, Monkey CD3; experiment: flow cytometry, monkey T cells; remark: listed apart in the source
human CEA = target: T3, human CEA (human, UniProt P06731 35-685); experiment: flow cytometry, human tumor cells (table of the CEA series)
T3 sequence: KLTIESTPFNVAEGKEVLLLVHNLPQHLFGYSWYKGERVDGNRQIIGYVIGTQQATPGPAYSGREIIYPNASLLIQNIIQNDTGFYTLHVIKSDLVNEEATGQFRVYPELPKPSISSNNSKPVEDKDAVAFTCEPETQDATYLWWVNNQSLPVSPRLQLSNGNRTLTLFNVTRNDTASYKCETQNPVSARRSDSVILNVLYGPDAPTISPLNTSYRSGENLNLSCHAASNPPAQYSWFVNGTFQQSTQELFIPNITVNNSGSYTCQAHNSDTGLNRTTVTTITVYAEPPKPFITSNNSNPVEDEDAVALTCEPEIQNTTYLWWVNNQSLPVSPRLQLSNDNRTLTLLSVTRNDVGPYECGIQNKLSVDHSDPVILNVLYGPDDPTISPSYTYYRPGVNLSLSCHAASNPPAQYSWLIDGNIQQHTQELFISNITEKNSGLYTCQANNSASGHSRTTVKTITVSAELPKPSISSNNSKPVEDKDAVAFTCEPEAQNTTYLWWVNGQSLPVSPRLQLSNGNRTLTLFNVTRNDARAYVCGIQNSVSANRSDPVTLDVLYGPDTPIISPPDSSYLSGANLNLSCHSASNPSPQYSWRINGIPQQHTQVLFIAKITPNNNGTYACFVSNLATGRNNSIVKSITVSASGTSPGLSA
From the text: as §1, §2, §3

B1: CD38-M1-FES-3 (bispecific antibody)
chain: not shown
heavy: not shown
light: DIELTQPPSVSVAPGQTARISCSGDNLRHYYVYWYQQKPGQAPVLVIYGDSKRPSGIPERFSGSNSGNTATLTISGTQAEDEADYYCQTYTGGASLVFGGGTKLTVLGQGQPKAAPSVTLFPPSSEELQANKATLVCLISDFYPGAVTVAWKADSSPVKAGVETTTPSKQSNNKYAASSYLSLTPEQWKSHRSYSCQVTHEGSTVEKTVAPTECS
notes: structure 1; CD38 (MOR) x CD3 (I2C); CH2 FES; CL is Lc3
- EC50 (Monkey CD3 [1]): 34 nM
- EC50 (Human CD38): 11.1 nM

B2: M3IC-NA (bispecific antibody)
fusion heavy: EVKLDETGGGLVQPGRPMKLSCVASGFTFSDYWMNWVRQSPEKGLEWVAQIRNKPYNYETYYSDSVKGRFTISRDDSKSSVYLQMNNLRVEDMGIYYCTGSYYGMDYWGQGTSVTVSSASTKGPSVFPLAPSSKSTSGGTAALGCLVKDYFPEPVTVSWNSGALTSGVHTFPAVLQSSGLYSLSSVVTVPSSSLGTQTYICNVNHKPSNTKVDKKVEPKSCGGGGSGGGGSQVQLVESGGGVVQPGRSLRLSCAASGFTFSTYAMNWVRQAPGKGLEWVARIRSKYNNYATYYADSVKDRFTISRDDSKNTLYLQMNSLRAEDTAVYYCARHGNFGNSYVSWFAYWGQGTLVTVSSASVAAPSVFIFPPSDEQLKSGTASVVCLLNNFYPREAKVQWKVDNALQSGNSQESVTEQDSKDSTYSLSSTLTLSKADYEKHKVYACEVTHQGLSSPVTKSFNRGECDKTHTCPPCPAPELLGGPSVFLFPPKPKDTLMISRTPEVTCVVVDVSHEDPEVKFNWYVDGVEVHNAKTKPREEQYASTYRVVSVLTVLHQDWLNGKEYKCKVSNKALPAPIEKTISKAKGQPREPQVYTLPPCRDELTKNQVSLWCLVKGFYPSDIAVEWESNGQPENNYKTTPPVLDSDGSFFLYSKLTVDKSRWQQGNVFSCSVMHEALHNHYTQKSLSLSPGK
cross light: QTVVTQEPSLTVSPGGTVTLTCRSSTGAVTTSNYANWVQQKPGQAPRGLIGGTNKRAPGVPARFSGSLLGGKAALTLSGVQPEDEAEYYCALWYSNLWVFGGGTKVEIKSSASTKGPSVFPLAPSSKSTSGGTAALGCLVKDYFPEPVTVSWNSGALTSGVHTFPAVLQSSGLYSLSSVVTVPSSSLGTQTYICNVNHKPSNTKVDKKVEPKSC
heavy: EVKLDETGGGLVQPGRPMKLSCVASGFTFSDYWMNWVRQSPEKGLEWVAQIRNKPYNYETYYSDSVKGRFTISRDDSKSSVYLQMNNLRVEDMGIYYCTGSYYGMDYWGQGTSVTVSSASTKGPSVFPLAPSSKSTSGGTAALGCLVKDYFPEPVTVSWNSGALTSGVHTFPAVLQSSGLYSLSSVVTVPSSSLGTQTYICNVNHKPSNTKVDKKVEPKSCDKTHTCPPCPAPELLGGPSVFLFPPKPKDTLMISRTPEVTCVVVDVSHEDPEVKFNWYVDGVEVHNAKTKPREEQYASTYRVVSVLTVLHQDWLNGKEYKCKVSNKALPAPIEKTISKAKGQPREPQVCTLPPSRDELTKNQVSLSCAVKGFYPSDIAVEWESNGQPENNYKTTPPVLDSDGSFFLVSKLTVDKSRWQQGNVFSCSVMHEALHNRFTQKSLSLSPGK
light: DVVMTQTPLSLPVSLGDQASISCRSSQSLVHSNGNTYLRWYLQKPGQSPKVLIYKVSNRFSGVPDRFSGSGSGTDFTLKISRVEAEDLGVYFCSQSTHVPWTFGGGTKLEIKRTVAAPSVFIFPPSDEQLKSGTASVVCLLNNFYPREAKVQWKVDNALQSGNSQESVTEQDSKDSTYSLSSTLTLSKADYEKHKVYACEVTHQGLSSPVTKSFNRGEC
notes: structure 3 isotype control; CH2 N297A; copies: 1 + 1 + 1 + 2
- EC50 (Human CD3ε): 739 nM
- EC50 (Monkey CD3 [2]): 935 nM
- binding result (human CEA): no binding

B3: CD38-M1-G2-2 (bispecific antibody, human IgG1, kappa)
chain: QVQLVESGGGVVQPGRSLRLSCAASGFTFSTYAMNWVRQAPGKGLEWVARIRSKYNNYATYYADSVKDRFTISRDDSKNTLYLQMNSLRAEDTAVYYCARHGNFGNSYVSWFAYWGQGTLVTVSSGGGGSGGGGSGGGGSQTVVTQEPSLTVSPGGTVTLTCRSSTGAVTTSNYANWVQQKPGQAPRGLIGGTNKRAPGVPARFSGSLLGGKAALTLSGVQPEDEAEYYCALWYSNLWVFGGGTKVEIKGRGRGSDKTHTCPPCPAPPVAGPSVFLFPPKPKDTLMISRTPEVTCVVVDVSHEDPEVQFNWYVDGVEVHNAKTKPREEQFNSTFRVVSVLTVVHQDWLNGKEYKCKVSNKGLPAPIEKTISKTKGQPREPQVCTLPPSRDELTKNQVSLSCAVKGFYPSDIAVEWESNGQPENNYKTTPPVLDSDGSFFLVSKLTVDKSRWQQGNVFSCSVMHEALHNHYTQKSLSLSPGK
heavy: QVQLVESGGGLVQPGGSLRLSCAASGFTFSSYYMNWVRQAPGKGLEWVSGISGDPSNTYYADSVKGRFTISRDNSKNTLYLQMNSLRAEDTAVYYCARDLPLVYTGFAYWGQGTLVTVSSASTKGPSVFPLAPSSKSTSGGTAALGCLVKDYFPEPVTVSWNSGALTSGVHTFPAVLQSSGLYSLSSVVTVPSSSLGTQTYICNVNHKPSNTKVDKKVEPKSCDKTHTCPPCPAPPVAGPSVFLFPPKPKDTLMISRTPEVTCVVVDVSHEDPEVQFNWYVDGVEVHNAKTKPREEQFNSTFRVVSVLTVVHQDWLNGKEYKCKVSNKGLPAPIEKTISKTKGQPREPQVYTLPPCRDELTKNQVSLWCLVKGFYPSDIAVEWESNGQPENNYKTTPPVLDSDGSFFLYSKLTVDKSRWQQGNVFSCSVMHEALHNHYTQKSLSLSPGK
light: DIELTQPPSVSVAPGQTARISCSGDNLRHYYVYWYQQKPGQAPVLVIYGDSKRPSGIPERFSGSNSGNTATLTISGTQAEDEADYYCQTYTGGASLVFGGGTKLTVLGQRTVAAPSVFIFPPSDEQLKSGTASVVCLLNNFYPREAKVQWKVDNALQSGNSQESVTEQDSKDSTYSLSSTLTLSKADYEKHKVYACEVTHQGLSSPVTKSFNRGEC
notes: structure 1; CD38 (MOR) x CD3; CH2 G2CH2
- EC50 (Human CD3ε): 478 nM
- EC50 (Monkey CD3 [1]): 491 nM
- EC50 (Human CD38): 104 nM

B4: CD38-M1-G2D-1 (bispecific antibody, human IgG1, kappa)
chain: B3 chain with D304A
heavy: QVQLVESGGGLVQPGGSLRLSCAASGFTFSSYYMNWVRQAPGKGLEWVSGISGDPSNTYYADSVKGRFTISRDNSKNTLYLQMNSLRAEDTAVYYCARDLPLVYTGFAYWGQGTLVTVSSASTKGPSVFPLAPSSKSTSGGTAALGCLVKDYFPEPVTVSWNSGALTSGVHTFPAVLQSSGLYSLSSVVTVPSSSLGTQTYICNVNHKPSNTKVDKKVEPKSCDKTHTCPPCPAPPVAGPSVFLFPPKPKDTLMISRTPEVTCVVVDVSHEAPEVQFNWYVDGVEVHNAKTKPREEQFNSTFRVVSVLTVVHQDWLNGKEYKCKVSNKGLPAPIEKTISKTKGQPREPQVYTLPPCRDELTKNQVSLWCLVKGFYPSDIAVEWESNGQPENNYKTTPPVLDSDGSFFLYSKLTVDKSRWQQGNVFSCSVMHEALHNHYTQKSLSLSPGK
light: B3 light
notes: structure 1; CD38 (MOR) x CD3; CH2 G2DCH2
- EC50 (Human CD3ε): 405 nM
- EC50 (Monkey CD3 [1]): 420 nM
- EC50 (Human CD38): 100 nM

B5: CD38-M1-SG2-2 (bispecific antibody, human IgG1, kappa)
chain: B3 chain with C264S
heavy: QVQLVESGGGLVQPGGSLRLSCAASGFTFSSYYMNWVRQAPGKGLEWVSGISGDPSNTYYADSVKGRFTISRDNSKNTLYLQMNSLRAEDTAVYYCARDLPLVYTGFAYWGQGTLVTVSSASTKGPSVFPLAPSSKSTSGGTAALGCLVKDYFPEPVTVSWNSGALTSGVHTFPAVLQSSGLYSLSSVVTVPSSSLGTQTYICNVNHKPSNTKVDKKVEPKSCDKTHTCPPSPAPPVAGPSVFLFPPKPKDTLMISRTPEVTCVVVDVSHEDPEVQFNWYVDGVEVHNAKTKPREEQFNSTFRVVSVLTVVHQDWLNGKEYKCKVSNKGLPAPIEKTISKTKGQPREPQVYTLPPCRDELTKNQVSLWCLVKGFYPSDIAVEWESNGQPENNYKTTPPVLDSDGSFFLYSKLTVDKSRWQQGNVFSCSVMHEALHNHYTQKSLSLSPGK
light: B3 light
notes: structure 1; CD38 (MOR) x CD3; CH2 SG2CH2
- EC50 (Human CD3ε): 437 nM
- EC50 (Monkey CD3 [1]): 461 nM
- EC50 (Human CD38): 106 nM
